Data: PMC10899400, “2′-19F labelling of ribose in RNAs: a tool to analyse RNA/protein interactions by NMR in physiological conditions”

Target: Sam68 QUA1-KH (UniProt Q07666 96-260)
Experiment: EMSA; 40 uM RNA, 10-200 uM protein; NMR buffer 20 mM NaHPO4 pH 6.5, 100 mM NaCl, 1 mM beta-mercaptoethanol, 50 mM L-Arg, 50 mM L-Glu; 19F NMR of free RNA at 303 K, with or without 40% HeLa nuclear extract; EMSA 14% PAGE in TBE pH 7.6, 4 C
Conditions: protein: recombinant; tags: N-terminal His6-TEV (pLEICS-01), TEV-treated; chain copies: 2; single-stranded

Sequence of Sam68 QUA1-KH (Q07666 96-260): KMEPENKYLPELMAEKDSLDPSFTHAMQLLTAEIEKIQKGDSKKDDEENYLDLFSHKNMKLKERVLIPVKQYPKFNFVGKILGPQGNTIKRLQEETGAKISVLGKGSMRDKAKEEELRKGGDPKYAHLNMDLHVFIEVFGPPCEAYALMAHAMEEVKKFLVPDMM

UUACAGGGUUUUAGACAAAAU (ssRNA) [unmodified RNA (SMN2 21-mer)]
binding result: binds
